Test results published in publication doi:10.1101/296517.

What was measured:
[1] = molecular target: giantin (rat hepatocytes) (rat (endogenous in primary hepatocytes)); test: Western blot of lysates
[2] = molecular target: giantin (human (endogenous in HeLa, LNCaP, PC-3, liver tissue)) (UniProt Q14789); test: Western blot of lysates; conditions: remark: other sources report otherwise

giantin (rat hepatocytes) (natural protein)
stoichiometry N [1]: 2

giantin, Q14789 1-3259
stoichiometry N [2]: 2
